Laboratory results reported in publication PMC5575849 (Developmental cell, 2017).

Biological target: the molecule itself
Assay: single-cell single-molecule pull-down

B1: mNG::AraD (mNG::3xFlag::AraD) (enzyme, E. coli, UniProt P08203 1-231, looked up)
chain: MLEDLKRQVLEANLALPKHNLVTLTWGNVSAVDRERGVFVIKPSGVDYSVMTADDMVVVSIETGEVVEGTKKPSSDTPTHRLLYQAFPSIGGIVHTHSRHATIWAQAGQSIPATGTTHADYFYGTIPCTRKMTDAEINGEYEWETGNVIVETFEKQGIDAAQMPGVLVHSHGPFAWGKNAEDAVHNAIVLEEVAYMGIFCRQLAPQLPDMQQTLLDKHYLRKHGAKAYYGQ
  stoichiometry N: 4
